The record followed here is patent US20140294977A1, “Radiation-Sterilized Biodegradable Drug Delivery Composition” (DURECT CORPORATION, priority 2011, published 2014).

A short description of this series: Gamma-radiation stability of hGH:protamine powders and SAIB/BB/PLA suspensions by RPLC. The settings on record: after gamma irradiation at 15 kGy. Format: physicochemical.

Experimental: Aliquots of 3 mL each of the bulk hGH solution in buffer from BresaGen were transferred into 5 mL type-Hypak BD glass syringes and lyophilized using the lyophilization cycle provided in Table 1 (optimized for hGH) to fit the steps provided with an FTS lyophilizer, Dura Stop, MP Stoppering Tray Dryer, Stone Ridge, N.Y.
100 mg of BresaGen hGH powder was placed in a 15 mL wide-mouth glass jar. 5.5 mL of 25 mM NH4HCO3 (pH ˜7.5) solution was added and the compound was stirred for 30 min at room temperature, 400 rpm until it became clear. Then 1.02 mL of protamine sulfate solution (conc. 10 mg/mL) was slowly added to form a white precipitate. The resulting suspension was stirred for 30 min to complete the complexation reaction. 0.19 mL of 290 mM sucrose solution was then added while stirring at 400 rpm. When the solution was clear, 15.2 μL of 10% polysorbate 20 solution was added. In powders with methonine formulation, 1 wt %-35 wt % of methionine relative to the total protein weight was added to the complexed suspension. […]
Stability of the above formulations was determined using RPLC analysis. […]

Consider “control hGH powder: lyophilized human growth hormone powder (BresaGen) without complex, used as control”, for which the “purity of hGH / impurity peaks in RPLC spectra (FIG. 1)” value is recorded as “showed an impurity peak around 8.15 min”.
